Reference: the nanobody polyreactivity screen of Harvey et al. (2022)

Test: yeast display, Sf9 membrane polyspecificity reagent, FACS + sequencing; frameworks hold sequencing errors
In short: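 Nanobodies from a synthetic yeast display library (Saccharomyces cerevisiae BJ5465), induced 36–48 hours with galactose, were stained 1 hour at 4 °C with 10% biotinylated, detergent-solubilized Sf9 membrane reagent, enriched on streptavidin microbeads, then FACS-sorted. Anti-HA (expression) and streptavidin (reagent binding) fluorescence set low and high (top ~1%) gates. Polyreactivity labels come from the gate of origin. Genes were colony-PCR amplified, MiSeq 2 × 250 sequenced and filtered by CDR length.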

| Sequence | polyreactivity (PSR sort gate) |
| --- | --- |
| QVQLVESGGGLVQAGGSLRLSCSASGRTFGGNAMGWSRPAPGKERELVAAIARSGGTTYYADSVKGRFTISRDNAKNTVYLQMNSLKPEDTAVYYCNTRRYGAMYYWGQGTQVTVSS | high polyreactivity |
| QVQLVESGGGLVQAGGSLRLSCSASGRTFHYYAMGWYRQAPGKERELVAVIRYSGGRTYYADSVKGRFTISRDNAKNTVYLQMNSLKPEDTAVYYCNKGRWRTDQPVYLIAFDYWGQGTQVTVTS | low polyreactivity |
| QVQLVESGGGLVQAGGSLRLSCSASGRTFSAYAMGWDRPAPGKERELVARITSVDSTNYADSVKGRFTISRDNAKNSVYLKMNSLTPEDTAVYYCNATFCYPFFDYDDYWGQGTQVTVSS | low polyreactivity |
| QVQLVESGGGLVQAGGSLRLSCSASGRTFYEYAMGWYIQAPGKERELVAGITSGGSTNYADSVKGRFTISRDNAKNTVYLQMNSLKPEDTAVYYCAATYWGYEYDYWGQGTQVTVSS | low polyreactivity |
| QVQLVESGGGLVQAGGSLRLSCSASGSIFGIYTMGWYRQAPGKERELVAAINSGGSTNYADSVKGRFTISRDNAKNTVYLQMNSLKPEDTAVYYCAAGGSSSWAFNYWGQGTQVTVSS | low polyreactivity |
| QVQLVESGGGLVQAGGSLRLSCSASGSIFLYYTMGWYRQEPGKERELVAAITWSGASTYYADSVKGRFTISRDNGKITVYLQMNSLKPEDTAVYYCATRYRYRYCGQGTQVTVSS | high polyreactivity |
| QVQLVESGGGLVQAGGSLRLSCSASGSIFPTYAMGWYRKAPGKERELVAAIRSGSNTYYADSVKGRFTISRDNAKNTVYLQMNSLKPEDTAVYYCNKATNLSGGYDSWGQGTQVTVSS | low polyreactivity |
| QVQLVESGGGLVQAGGSLRLSCSASGSIFRFNAKGWYRQAPGKERELVASSRWDTASTYYADSVKGRFTISRDNAKNTVYLQMNSLKPEDTAVYYCNAGRPRFYRSRWYYYGYGYWGQGTQVTVSS | high polyreactivity |
| QVQLVESGGGLVQAGGSLRLSCSASGSIFRYYAMGWYRQPPGKEREFVASITYRGGRTYYADSVKGRFTISRDNAKKTVYLQMNSLKPEDTAVYYCAARTRAGAWTSKYHDYWGEGTQVTVSS | high polyreactivity |
| QVQLVESGGGLVQAGGSLRLSCSASGSIFSHYVMGWYRQAPGKERELVAAISPSGDSTYYADSVKGRFTISRDNAKNTVYLQMNSLKPEDTAVYYCNAGFGQYRYRGHDDYWGQGTQVTVSS | high polyreactivity |
| QVQLVESGGGLVQAGGSLRLSCSASGSIFWYNAMGWYRHAPGKERELVAAISRSGSRTYYADSVKGRFTISRDYAKNTVYLQMNSLKPEDTAVYYCARVRPRVLYFVLHYDYWGQGTQVTVSS | high polyreactivity |
| QVQLVESGGGLVQAGGSLRLSCSASGSIFYTYAMGWYRQAPGKERELVAAISRSGGITYYADSVKGRFTISRDNAKNTVYLEMNSLKPEDTAVYFCNVASASPGRYDYWGQGTQVTLSS | high polyreactivity |
| QVQLVESGGGLVQAGGSLRLSCSASGSISYYNAMAWYRQAPGKERELVASITRRGGTTNYAESVKGRFSISRDNAKHTVYLQMNSLKPEDTAVYNCNAEYPYWTPDYNYRFDYWGQGTQVTVSS | high polyreactivity |
| QVQLVESGGGLVQAGGSLRLSCSASGSTFGQYAMGWYRHAPGKERELVAAISRGGGSTYYADSVKGRFTISRDNAKYTVYLQMNSLKPEDTAVYYCNALSARSYYWGQGTQVTVSS | high polyreactivity |
| QVQLVESGGGLVQAGGSLRLSCSASGSTFHPYAMGWYRQAPGKERELVAAINSGDNTYYADSVKGRFTITRDNAKNTVYLQMNSLKPEDTAVYYCAVRYWDESHTEYDYWGQGTQVTVSS | low polyreactivity |
| QVQLVESGGGLVQAGGSLRLSCSASGSTFPSNAMGWYRQAPGKERELVAAIRGRGGSTYYADSVKGRFTISRDNAKNTVYLQMNSLKPEDTAVYYCAKKVRSYVRWEYDYWGQGTQVTVSS | low polyreactivity |
| QVQLVESGGGLVQAGGSLRLSCSASGSTFSRYAMGWYRQAPGKEREFVAAISQRGGSTYYADSVKGRFTISRDNAKNTVYLQMNSLKPEDTAVYYCAARRVPQLDDYWGQGTQVTVSS | high polyreactivity |
| QVQLVESGGGLVQAGGSLRLSCSASGSTIRDYAMGWYRQAPGKERELVAVIDNSGGRTYYADSVKGRFTISRDNAKNTVYLQMNSLKPEDTAVYYCNTRRIAQYGYWGQGTEVTVSS | high polyreactivity |
| QVQLVESGGGLVQAGGSLRLSCSASGTFYGYAMAWSRQAPGKERELVASSTWGGGRTYYADSVKGRFTTSRDNAKNTVYLQMNSLKPEDTAVYYCATRSRPQYNKYDYWGQGTQVTVSS | high polyreactivity |
| QVQLVESGGGLVQAGGSLRLSCSASGTTFRGYAMGWYRQAPGKEREVVAAISNNGVTTYYADSVKGRFTISRDNAKNTVYLQMNSLKPEDAAVYYCAAGLYHGFAASDEIRGDYWGLGTQVTVSS | low polyreactivity |
| QVQLVESGGGLVQAGGSLRLSCSATGNTLDVNARGWYRQAPGKERELVAAITSGGSTNYADSVKVRFTISRDNAKNTVYLQMNSLKPEDTAVYYCAATAALGRPEYYWGQGSQVTVSS | low polyreactivity |
| QVQLVESGGGLVQAGGSLRLSCTASGFTFFSNAMGWYRQAPVKEREFVASISRSGGRTYYADSVKGRFTISRDNEKNTVYLQMNSLKPEDTAVYYCAADVPYYLHNPRYGYWGQGTQVTVSS | high polyreactivity |

| Sequence | polyreactivity (PSR sort gate) |
| --- | --- |
| QVQLVESGGGLVQAGGSLRLSCTASGIIFGTFAMGWYRQAPGKERELVAAISSSGVSTYYADSVKGRFTISRDNAKNTVYLQMNSLKPEDTAVYYCAAPLHYGYYYWGQGTQVTVSS | high polyreactivity |
| QVQLVESGGGLVQAGGSLRLSCTASGRIFTRNAMGWYRQAPGKERELVASISRTGTSTYYADSVKGRFTISRDNEKNNVYLQMNSLKPEDTAVYYFNARRTSVRFDYWGQGTQVTVSS | high polyreactivity |
| QVQLVESGGGLVQAGGSLRLSCTASGRTLYNYTMGWYRQAPGKERELVATINFSGGSTYYADSVKGRFTISRDNAKNTVYLQMNSLKPEDTAVYYCNARGYHYAYKGAYLGDYYWGQGTQVTVSS | low polyreactivity |
| QVQLVESGGGLVQAGGSLRLSCTASGSIFVTNAMGWYRQAPGKERELVAAITWGGGNTTYADSVKGRFTISRDNAKNTVDLQMNSLKPEDTAVYYCAKDPYVNRDYWGQGTQVTVSS | low polyreactivity |
| QVQLVESGGGLVQAGGSLRLSCVASGLTQPYAMGWYRQAPGKERELVAAISSSGGRTSYADSVKGRFTISRDNAKNTVYLQMNSLKPEDTAVYYCNVDLGVNGDYWGQGTQVTVSS | low polyreactivity |
| QVQLVESGGGLVQAGGSLRLSCVASGRIIPGNAMGGYRQAPGKESELVAAISYGGGSTYYADSVKGRFTISRDNAKNTVYLQMNSLKPADTAVYYCAAASSGEYGYWGQGTQVTVSS | low polyreactivity |
| QVQLVESGGGLVQAGGSLRLSCVASGRTFSRYAMGWYRQAPGKERELVAAISRRGGSTYYADSVKGRFTISRDNAKNTVYLQMNSLKPEDTAVYYCAAGYITWGSGNWVVTPYDYWGLGTQVTVSS | high polyreactivity |
| QVQLVESGGGLVQAGGSLRLSCVASGSIFGSYAMGWYRQAPGKERELVASISDSGGSTDYADSVKGRFTISRDNAKNTVYLQMHSLKPEDTAVYYCAADDFSGYVTEYDYWGQGTQVTVSS | low polyreactivity |
| QVQLVESGGGLVQAGGSLRLSFAASEGWYRQAPGKERELVAAISYIGGSTYYADSEKGRFTISRDNAKNTVYLQMNRLKPEDTAVYYCAKGYPDPKWGGVLAYDYWGQGTQVTVSS | low polyreactivity |
| QVQLVESGGGLVQAGGSLRLSFAASGFTFRNYAMGWYRQAPGKERELVAAISTSGGRTYYADSVKGRFTISRDNAKNTVYLEMNSLKPEDTAVYYCNAGSGSYSYRYNYWGQGTQVTVSS | high polyreactivity |
| QVQLVESGGGLVQAGGSLRLSFAASGGTFRPYAMGWYRQAPGKETELVATIRSSGGRTYYADSVKGRFTISRDNAKNTVYLQMNSLKPEDTAVYYCAKRAQTYYGYDYWVQGTQVTVSS | high polyreactivity |
| QVQLVESGGGLVQAGGSLRLSFAASGGTLDVYAMGWYRQAPGKEREFVAAISWSGGRTYYADSVKGRFTISRDNAKNTVYLQMISLKPEDTAVFFCATDLYISIRYGGYYWGQGTQVTVSS | high polyreactivity |
| QVQLVESGGGLVQAGGSLRLSFAASGRIFAYYVMGWYRQAPGKARELVAAITGSGGSTYYADSVKGRFTISRDNAKNTVYLQMNSLKPEDTAVYYCNADFVWRGDYWGQGTQVTVSS | low polyreactivity |
| QVQLVESGGGLVQAGGSLRLSFAASGRIFKRNTKRWYRQAPGKETELVAAITYSGITYYADSVKGRFTISRDNAKNTFYLQMNSLKPEDTAVYYCDKVLYPIGSPRFEYWGQGTQVTVSS | low polyreactivity |
| QVQLVESGGGLVQAGGSLRLSFAASGRIFPHNAMGWYRQAPGKERELVAAISSNGGSTYYADSVKGRFTISRDNAKNTVYLQMNSLKPEDTAVYYCAKYRYFAGDGDYWGQGTQVTVSS | low polyreactivity |
| QVQLVESGGGLVQAGGSLRLSFAASGRTFDRNAMGWYRQAPGKERELVARITIDGSTNYADSVKGRFTISRDNAKNTVYLQMNSLKPEDTAVYYCATDQLSLSWYFRPYDYGYWGQGTQVTVSS | high polyreactivity |
| QVQLVESGGGLVQAGGSLRLSFAASGRTFGTNGMGWYRQAPGKEREFVAAITWNGGGTYYADSVKGRFTISRDNAKNTVYLQMNSLKPEDTSVYYSAKRTRWNYKGYGTGGYYWGQGTQVTVSS | high polyreactivity |
| QVQLVESGGGLVQAGGSLRLSFAASGRTFVINAMGWYRQAPGKERELVAAITWRGGSTYYADSVKGRFTISRDNAKNTVYLQMNSLKPEDTAVYYCAARWFPWLQLKRYDYWGQGTQVTVSS | low polyreactivity |
| QVQLVESGGGLVQAGGSLRLSFAASGRTFYYYASRWYRQAPGKERELVARIRSGGSTNYADSVKGRFTISRDNAKNTFYLQMNSLKPEDTAVYYCNALGAKGYVKGFDYRGQGTQVTVSS | low polyreactivity |
| QVQLVESGGGLVQAGGSLRLSFAASGSIFDDNAMGWYRQAPGKERELVAAITSTDSTNYADSVKGRFTISRDNAKNTVYLQMNSLKPEDTAVYYCARDIKHATSYEALYYSDYDYWGQGTQVTVSS | low polyreactivity |
| QVQLVESGGGLVQAGGSLRLSFAASGSIFIRNAMGWYRQAPGKERELVAAISIGDGSTYADSVKGRFTISRDNAKNSVYLQMNSLKPEDTAVYYCNAAGIVWRYYSYGYWGQGTQVTVSS | low polyreactivity |
